Test results from US20220259593A1, “CONTROL OF MAMMALIAN GENE DOSAGE USING CRISPR” (The Regents of the University of California, priority 2019, published 2022).

B1: cr447 (nucleic acid)
guide: GTTTAAGAGCTAAGCTGGAAACAGCATAGCAAGCTTAAATAAGGCTAGTCCGTTATCAACTTGAAAAAGTGGCACCAAGTTGGTGCT
modifications: listed as DNA, chemistry not fully specified
B2: cr075 (nucleic acid)
guide: GTTTCATAGCTAAGCTGGAAACAGCATAGCAAGTTTAAATAAGGCTAGTCCGTTATCAACTTGAAAAAGTGGCACCGAGTCGGTGCT
modifications: listed as DNA, chemistry not fully specified
B3: cr683 (nucleic acid)
guide: GTTTAAGAGCTAAGCTGGAAACAGCATAGCAAGTTTAAATAAGGCTAGTTCGTTATGAACTTGAAAAAGTGGCACCGAGTCGGTGCT
modifications: listed as DNA, chemistry not fully specified
B4: cr230 (nucleic acid)
guide: GTTTAAGAGCTAAGCTGGAAACAGCATAACAAGTTTAAATAAGGCTAGTCCATTATCAACTTGAACAAGTGGCACCGAGTCGGTGCT
modifications: listed as DNA, chemistry not fully specified
B5: cr063 (nucleic acid)
guide: ATTTTAGAGCTAAGCTGGAAACAGCATAGCAAGTTTAAATAAGGCTAGTCCGTTATCAACTTGAAAAAGTGGCACCGAGTCGGTGCT
modifications: listed as DNA, chemistry not fully specified
B6: cr228 (nucleic acid)
guide: GTTTAAGAGCTAAGCTGGAAACAGCATAGCAAGTTTAAATAAGGGTAGTCCGTTATCAACTTGAAAAAGTGGCACCGAGTCGGTGCT
modifications: listed as DNA, chemistry not fully specified
B7: cr618 (nucleic acid)
guide: GTTTAAGAGCTAAGCTGGAAACAGCATAGCAAGTTTAAGTAAGGCTAGTCCGTTATCAACTTGAAAAAGTGGCACCGAGTCGGTGCT
modifications: listed as DNA, chemistry not fully specified
B8: cr502 (nucleic acid)
guide: GTTTAAGAGCTAAGCTGGAAACAGCATAGCAAGTTTAAATAAGGCTAGTCCGTTATCAACTTGAAAAAGTGGCACCGAGTCGCTGCT
modifications: listed as DNA, chemistry not fully specified
B9: cr808 (nucleic acid)
guide: GTTTAAGAGCTAAGCTGGAAACAGCATAGCAAGTTTAAATAAAGCTAGTCTGTTATCAAATTGAAAAATTGTCACCGAGTCGGTGAT
modifications: listed as DNA, chemistry not fully specified
B10: cr221 (nucleic acid)
guide: GTTTAAGAGCTAAGCTGGAAACAGCATAGCAAATTTAAATAAGGCTAGTCCGTTATGAACTTGAGAAAGTGGCACCGAGTCGGTGCT
modifications: listed as DNA, chemistry not fully specified
B11: cr229 (nucleic acid)
guide: GTTTAAGAGCTAAGCTGGAAACAGCATAGCAAGTTTAAATACGGCTAGTCCGTTATCAACTTGAAAAAGTGGCACCGAGTCGGTGCT
modifications: listed as DNA, chemistry not fully specified
B12: cr544 (nucleic acid)
guide: GTTTAAGAGCTAAGCTGGAAACAGCATAGCAACTTTAAATAAGGCTAGTCCGTTATCAACTCGAAAGAGTGGCACCGAGTCGGTGCT
modifications: listed as DNA, chemistry not fully specified

The molecules below were run on K562 CRISPRi cells (assay: Constant region variant library pooled growth screen, K562). Settings: sgRNA constant region variants; activity relative to the unmodified constant region cr995.
Format: cell-based, human
Method in brief: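 Pooled library transduced into K562 CRISPRi cells in duplicate, puromycin-selected, grown at >2000× coverage and sampled after 4 to 8 days. Phenotypes per targeting sequence:constant region pair were normalized to the unmodified-scaffold pairing to give relative activity.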

Going from B1 to B2, the Mean relative activity falls from 0.1616 to 0.1521.

Compared with B3, B4 is higher in Mean relative activity: 0.1568 for the first, 0.1598 for the second.

Going from B5 to B6, the Mean relative activity falls from 0.1565 to 0.1424.

Going from B7 to B8, the Mean relative activity falls from 0.1571 to 0.1485.

First: B9
Second: B10
The Mean relative activity of the first is lower: 0.1417 for the first, 0.1553 for the second.

Compared with B11, B12 is higher in Mean relative activity: 0.1478 for the first, 0.1605 for the second.
